{"source": "the supplement of paper PMC10567573", "parents": {"B1": {"name": "ZNF8 (parent)", "chain": "KPYTCSVCGKSFSRTTCLFLHLRT"}}}
{"variants_of": "B1", "experiment": "protein stability index of a GFP-peptide fusion (GPS, HEK-293T) (PSI 1-6); higher = more stable", "settings": "c terminus: a fixed tail appended"}
{"variant": "C17N", "protein stability index": 1.96}
{"variant": "C17E", "protein stability index": 3.61}
{"variant": "C17I", "protein stability index": 2.14}
{"variant": "C17Q", "protein stability index": 2.58}
{"variant": "C17D", "protein stability index": 3.67}
{"variant": "C17M", "protein stability index": 2.13}
{"variant": "C17H", "protein stability index": 2.04}
{"variant": "C17R", "protein stability index": 2.35}
{"variant": "C17F", "protein stability index": 1.92}
{"variant": "C17W", "protein stability index": 1.5}
{"variant": "C17G", "protein stability index": 2.22}
{"variant": "C17S", "protein stability index": 1.84}
{"variant": "C17Y", "protein stability index": 2.15}
{"variant": "C17T", "protein stability index": 2.42}
{"variant": "C17K", "protein stability index": 2.35}
{"variant": "C17A", "protein stability index": 2.19}
{"variant": "C17L", "protein stability index": 2.39}
{"variant": "C17P", "protein stability index": 1.91}
{"variant": "C17V", "protein stability index": 1.85}
{"variant": "F19S", "protein stability index": 2.03}
{"variant": "F19R", "protein stability index": 2.35}
{"variant": "F19V", "protein stability index": 1.9}
{"variant": "F19I", "protein stability index": 1.91}
{"variant": "F19N", "protein stability index": 2.36}
{"variant": "F19G", "protein stability index": 1.93}
{"variant": "F19M", "protein stability index": 2.35}
{"variant": "F19E", "protein stability index": 2.57}
{"variant": "F19A", "protein stability index": 1.98}
{"variant": "F19T", "protein stability index": 1.78}
{"variant": "F19H", "protein stability index": 2.26}
{"variant": "F19Q", "protein stability index": 2.54}
{"variant": "F19Y", "protein stability index": 2.44}
{"variant": "F19W", "protein stability index": 1.57}
{"variant": "F19C", "protein stability index": 3.11}
{"variant": "F19L", "protein stability index": 1.73}
{"variant": "F19K", "protein stability index": 1.93}
{"variant": "F19P", "protein stability index": 2.45}
{"variant": "F19D", "protein stability index": 2.79}
{"variant": "S11R", "protein stability index": 2.12}
{"variant": "S11Q", "protein stability index": 2.21}
{"variant": "S11T", "protein stability index": 2.2}
{"variant": "S11V", "protein stability index": 1.84}
{"variant": "S11W", "protein stability index": 1.71}
{"variant": "S11Y", "protein stability index": 2.2}
{"variant": "L18K", "protein stability index": 2.9}
{"variant": "L18S", "protein stability index": 1.89}
{"variant": "L18R", "protein stability index": 1.67}
{"variant": "L18W", "protein stability index": 2.18}
{"variant": "L18A", "protein stability index": 2.19}
{"variant": "L18M", "protein stability index": 2.33}
{"variant": "L18E", "protein stability index": 2.45}
{"variant": "L18Q", "protein stability index": 2.11}
{"variant": "L18C", "protein stability index": 2.31}
{"variant": "L18T", "protein stability index": 2.27}
{"variant": "L18Y", "protein stability index": 2.43}
{"variant": "L18F", "protein stability index": 1.95}
{"variant": "L18V", "protein stability index": 2.27}
{"variant": "L18H", "protein stability index": 1.96}
{"variant": "L18P", "protein stability index": 2.32}
{"variant": "L18I", "protein stability index": 2.49}
{"variant": "L18D", "protein stability index": 2.2}
{"variant": "L18G", "protein stability index": 2.44}
{"variant": "L18N", "protein stability index": 2.49}
{"variant": "S13I", "protein stability index": 1.67}
{"variant": "S13R", "protein stability index": 2}
{"variant": "S13K", "protein stability index": 2.06}
{"variant": "S13A", "protein stability index": 2.43}
{"variant": "S13V", "protein stability index": 2.15}
{"variant": "S13P", "protein stability index": 2.16}
{"variant": "S13E", "protein stability index": 2.57}
{"variant": "S13L", "protein stability index": 1.48}
{"variant": "S13M", "protein stability index": 1.88}
{"variant": "S13F", "protein stability index": 1.82}
{"variant": "S13W", "protein stability index": 1.87}
{"variant": "S13Y", "protein stability index": 1.75}
{"variant": "S13D", "protein stability index": 1.94}
{"variant": "S13N", "protein stability index": 1.76}
{"variant": "S13Q", "protein stability index": 2.38}
{"variant": "S13H", "protein stability index": 1.63}
{"variant": "S13G", "protein stability index": 1.62}
{"variant": "S13C", "protein stability index": 2.71}
{"variant": "S13T", "protein stability index": 1.86}
{"variant": "R14C", "protein stability index": 3.41}
{"variant": "R14K", "protein stability index": 2.12}
{"variant": "R14S", "protein stability index": 3.13}
{"variant": "R14L", "protein stability index": 1.65}
{"variant": "R14H", "protein stability index": 2.3}
{"variant": "R14D", "protein stability index": 3.85}
{"variant": "R14V", "protein stability index": 3.3}
{"variant": "R14M", "protein stability index": 1.68}
{"variant": "R14G", "protein stability index": 1.89}
{"variant": "R14E", "protein stability index": 2.7}
{"variant": "R14F", "protein stability index": 1.6}
{"variant": "R14W", "protein stability index": 1.66}
{"variant": "R14I", "protein stability index": 2.66}
{"variant": "R14Q", "protein stability index": 3.25}
{"variant": "R14P", "protein stability index": 2.45}
{"variant": "R14Y", "protein stability index": 1.93}
{"variant": "R14N", "protein stability index": 3.12}
{"variant": "R14T", "protein stability index": 3.19}
{"variant": "R14A", "protein stability index": 2.39}
{"variant": "T15Y", "protein stability index": 2.31}
{"variant": "T15R", "protein stability index": 2.58}
{"variant": "T15N", "protein stability index": 2.02}
{"variant": "T15V", "protein stability index": 2.44}
{"variant": "T15H", "protein stability index": 1.83}
{"variant": "T15M", "protein stability index": 2.73}
{"variant": "T15D", "protein stability index": 2.9}
{"variant": "T15A", "protein stability index": 2.45}
{"variant": "T15L", "protein stability index": 2.29}
{"variant": "T15S", "protein stability index": 2.4}
{"variant": "T15W", "protein stability index": 2.1}
{"variant": "T15I", "protein stability index": 2.62}
{"variant": "T15G", "protein stability index": 1.54}
{"variant": "T15F", "protein stability index": 2.9}
{"variant": "T15E", "protein stability index": 2.64}
{"variant": "T15Q", "protein stability index": 2.61}
{"variant": "T15K", "protein stability index": 2.39}
{"variant": "T15C", "protein stability index": 2.49}
{"variant": "T15P", "protein stability index": 2.47}
{"variant": "L20H", "protein stability index": 2.79}
{"variant": "L20A", "protein stability index": 2.66}
{"variant": "L20K", "protein stability index": 2.32}
{"variant": "L20C", "protein stability index": 2.63}
{"variant": "L20I", "protein stability index": 1.99}
{"variant": "L20D", "protein stability index": 2.11}
{"variant": "L20G", "protein stability index": 2.1}
{"variant": "L20F", "protein stability index": 2.14}
{"variant": "L20E", "protein stability index": 3.07}
{"variant": "T16K", "protein stability index": 1.56}
{"variant": "T16I", "protein stability index": 2.44}
{"variant": "T16S", "protein stability index": 2.17}
{"variant": "T16D", "protein stability index": 2.27}
{"variant": "T16E", "protein stability index": 2.25}
{"variant": "T16P", "protein stability index": 2.67}
{"variant": "T16R", "protein stability index": 1.82}
{"variant": "T16Q", "protein stability index": 2.73}
{"variant": "T16C", "protein stability index": 1.94}
{"variant": "T16V", "protein stability index": 1.68}
{"variant": "T16A", "protein stability index": 2.16}
{"variant": "T16F", "protein stability index": 1.39}
{"variant": "T16Y", "protein stability index": 2.03}
{"variant": "T16H", "protein stability index": 2.36}
{"variant": "T16L", "protein stability index": 1.79}
{"variant": "T16N", "protein stability index": 2.73}
{"variant": "T16G", "protein stability index": 2.6}
{"variant": "T16W", "protein stability index": 2.19}
{"variant": "T16M", "protein stability index": 1.98}
{"variant": "F12S", "protein stability index": 1.87}
{"variant": "F12K", "protein stability index": 2.88}
{"variant": "F12G", "protein stability index": 2.27}
{"variant": "F12I", "protein stability index": 3.27}
{"variant": "F12D", "protein stability index": 2.22}
{"variant": "F12N", "protein stability index": 2.4}
{"variant": "F12P", "protein stability index": 1.75}
{"variant": "F12Q", "protein stability index": 1.58}
{"variant": "F12E", "protein stability index": 1.77}
{"variant": "F12Y", "protein stability index": 2.15}
{"variant": "F12A", "protein stability index": 1.76}
{"variant": "F12V", "protein stability index": 1.73}
{"variant": "F12R", "protein stability index": 1.62}
{"variant": "F12W", "protein stability index": 1.72}
{"variant": "F12C", "protein stability index": 1.54}
{"variant": "F12H", "protein stability index": 2.35}
{"variant": "F12T", "protein stability index": 1.37}
{"variant": "F12L", "protein stability index": 1.83}
{"variant": "F12M", "protein stability index": 2.45}
